Among the data in publication doi:10.1101/2023.10.17.562808 are K half values, retold here.

Holding throughout (details): none besides dye labels, binding temperature not given
Data set [1] relates to PARP2 (mouse). Briefly: spFRET.
Data set [2] relates to PARP2 (mouse). Briefly: EMSA. On the technique in general: Mobility shift assays separate free from complexed probe on a gel.
In data set [3] the test system is PARP2 (mouse). As to the kind of experiment: EMSA. This is another data set of the same source.

On to NP nucleosome (603, 187 bp), for which the K half with PARP2 (mouse) [1] worked out at 19 nM; with PARP2 (mouse) [2], 40 nM; in the data set on PARP2 (mouse) [3] it was 40 nM.
